Test results from US20120277164A1 (IMPERIAL INNOVATIONS, published 2012).
Blank lines part the entries; values can stand above or below the binder they belong to.

Columns and labels:
[1] = target: T1, Gadd45β/MKK7 complex (biotin-hGadd45β with coated GST-MKK7, ELISA format) (human, UniProt O75293 1-160; O14733 1-419, biotinylated (sites not given)); assay: ELISA competition: coated GST-MKK7 (42 nM), soluble biotin-hGadd45β (21 nM), increasing peptide; read-out % binding of biotin-hGadd45β to MKK7
T1 construct: not shown: glutathione S-transferase (GST) fusion partner
T1 sequence (looked up) 1: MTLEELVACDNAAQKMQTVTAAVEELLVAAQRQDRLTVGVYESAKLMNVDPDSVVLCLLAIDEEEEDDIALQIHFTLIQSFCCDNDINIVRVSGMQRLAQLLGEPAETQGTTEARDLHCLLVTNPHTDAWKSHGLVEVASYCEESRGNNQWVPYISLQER
T1 sequence (looked up) 2: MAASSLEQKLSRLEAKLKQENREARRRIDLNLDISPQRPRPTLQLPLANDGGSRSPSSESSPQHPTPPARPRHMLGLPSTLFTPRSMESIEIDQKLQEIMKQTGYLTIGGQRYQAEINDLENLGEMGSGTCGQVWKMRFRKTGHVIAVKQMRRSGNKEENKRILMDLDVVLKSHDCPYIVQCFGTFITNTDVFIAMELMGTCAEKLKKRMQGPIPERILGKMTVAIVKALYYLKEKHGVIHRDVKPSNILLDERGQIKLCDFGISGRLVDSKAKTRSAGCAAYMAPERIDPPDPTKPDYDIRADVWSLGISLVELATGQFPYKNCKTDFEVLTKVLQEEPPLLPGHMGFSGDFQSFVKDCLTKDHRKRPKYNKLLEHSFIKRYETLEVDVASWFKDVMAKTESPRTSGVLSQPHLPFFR

[2] = target: T1, Gadd45β/MKK7 complex (biotin-hGadd45β …); assay: competition ELISA; coated GST-MKK7, biotin-hGadd45β; single dose
[3] = target: T2, MKK7KD (constitutively active kinase domain of MKK7, residues 101 to 405, S287D and T291D, His6 fusion) (UniProt O14733-3 101-405); assay: SPR (Biacore 3000), Gadd45β immobilized, MKK7KD injected at 1-25 nM
T2 construct: range 101-405; also called MKKKD; not shown: His6 tag
T2 sequence (looked up): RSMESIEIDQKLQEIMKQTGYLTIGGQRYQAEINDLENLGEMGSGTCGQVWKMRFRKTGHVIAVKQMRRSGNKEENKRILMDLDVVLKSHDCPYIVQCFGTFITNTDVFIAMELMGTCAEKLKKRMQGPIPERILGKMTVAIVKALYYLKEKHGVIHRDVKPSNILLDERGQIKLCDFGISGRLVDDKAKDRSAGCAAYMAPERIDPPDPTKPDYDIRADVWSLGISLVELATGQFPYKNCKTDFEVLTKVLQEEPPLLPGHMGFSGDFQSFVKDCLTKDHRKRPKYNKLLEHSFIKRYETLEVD
Experimental: On another channel the same procedure of activation with EDC/NHS and inactivation with ethanolamine was performed.

[4] = target: T2, MKK7KD (constitutively active kinase …); assay: SPR (Biacore 3000), MKK7KD immobilized, Gadd45β injected at 20-200 nM

IC50 [1]: 0.4 nM
% Inhibition of Gadd45β-MKK7 binding [2]: 94%
B1: Ac-YDHF-NH2 (peptide)
peptide: Ac-YDHF-NH2
notes: also called Ac-LTP1; LTP1

Kd [3]: 3.4 nM
Kd [4]: 4 nM
B2: Full length human Gadd45β (other, UniProt O75293 1-160, looked up)
chain: T1 sequence (looked up) 1
notes: also called Gadd45β (SPR)

IC50 [1]: 0.4 nM
% Inhibition of Gadd45β-MKK7 binding [2]: 93%
B3: Ac-YERF-NH2 (peptide)
peptide: Ac-YERF-NH2
notes: also called Ac-LTP2; LTP2
